# In paper PMC12748987:
# Experiments:
# [1] = biological target: GIRK1/2 heterotetrameric channel (GIRK1 with GIRK2) (not stated | mouse) (UniProt P63251)
# [2] = biological target: GIRK1/2 heterotetrameric channel (GIRK1 with GIRK2) (not stated | mouse) (UniProt P63251); remark: listed apart in the source
# [3] = biological target: GIRK2HA homotetrameric channel (HA-tagged GIRK2) (mouse)
# [4] = biological target: GIRK1/2HA heterotetrameric channel (GIRK1 with GIRK2HA) (not stated | mouse) (UniProt P63251)
# [5] = biological target: GIRK2 homotetrameric channel (mouse GIRK2A) (mouse)
# [6] = biological target: GIRK2 homotetrameric channel (mouse GIRK2A) (mouse); remark: listed apart in the source
time constant of the single-exponential decay of channel activity (NPo) after excision of the patch into Gβγ-free bath solution with ATP and Na+ [1] [min],"Kd, WTM model fit (µ = 0.3) of whole-cell currents against Gβ·YFPGγ surface density, mean of all experiments [2] [µM]","Kd, WTM model fit (µ = 0.3) of whole-cell currents against Gβ·YFPGγ surface density in individual oocytes (Fig. 4b, experiment #4) [3] [µM]","Kd, WTM model fit (µ = 0.3) of whole-cell currents against Gβ·YFPGγ surface density in individual oocytes (Fig. 4b, experiment #4) [4] [µM]","Kd, WTM model fit with fixed µ = 0.3 of single-channel Po against Gβ·YFPGγ surface density [5] [µM]","Kd, WTM model fit with fixed µ = 0.3 of whole-cell currents of GIRK2 or GIRK2HA against Gβ·YFPGγ surface density (mean of experiments) [6] [µM]","Kd, WTM model fit with fixed µ = 0.44 of whole-cell currents of GIRK2 or GIRK2HA against Gβ·YFPGγ surface density (mean of experiments) [6] [µM]",Substance
> 2,,,,,,,Gβγ (Gβ1γ2) coexpressed in Xenopus oocytes (from UniProt P62873 1-340; P59768 1-71) (complex)
,5.5,45,9,17.3,31,11,Gβ·YFPGγ (Gβ1 coexpressed with N-terminally YFP-labeled Gγ2) (from UniProt P62873 1-340; P59768 1-71) (complex)
